From the nanobody polyreactivity screen of Harvey et al. (2022)

Assay: yeast display, Sf9 membrane polyspecificity reagent, FACS + sequencing; frameworks hold sequencing errors
Outline: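 A synthetic nanobody library was expressed on Saccharomyces cerevisiae BJ5465 by galactose induction for 36–48 hours. The library was stained for 1 hour at 4 °C with 10% biotinylated, detergent-solubilized Sf9 membrane reagent and enriched with streptavidin microbeads before FACS. Low and high (top ~1%) gates were set on anti-HA fluorescence for expression and streptavidin fluorescence for reagent binding, and each polyreactivity label reflects the gate of origin.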

Sequence	polyreactivity (PSR sort gate)
QVHRVESGGGLVQAGASLRLSCAASGIIFDTYAMGCYRQAPGKEREIVAAITWNGGSTYYADSVKGRFTISRDNAKNPVYLQMNSLKPEDTPVYYCAKLPRTLTEYGYKGYYWGQGTQVTVSS	low polyreactivity
QVQLVESGGGLVQAGGSLRLSCAASGSTFGSYAMGLYRQAPGKERELVAAITQIGGSTYYADSVKGRFTISRDNAKNTVYLQMNSLKPEDTAVYYCAVTAGRGGYPQGGVTRGYWGQGTQVTVSS	high polyreactivity
QVQLVESGGGLVQAGGSHRLSCAASGRIFSVNAMGWYRQAPGKERELVASISWSGGSTYYADSVKGRFTISRDNAKNPVYLQMNSLKPEDTAVYYCNARIDSYGLDFDYWGQGTQVTVSS	low polyreactivity
QDQLVDSGGGLVQAGGSLRLSCAASGRTFTVYAMGWYRQAPGKERELVAAISGSSGSTDYADSVKGRFTISRDNAKNTVYLQMNSLKPEDTAVYYCAKASSATRYVQLRQDYDYWGQGTQVTVSS	low polyreactivity
QVQLVESGGGLVQAGGSLRLSCAASGRIFSYYAMGWYRPAPGKERELVAAISSSGGSTYYADSVKGRFTISRDNAKNTVYLQMNSLKPEDTAVYYCRVYTRGEYYSWGQGTQVTVSS	high polyreactivity
QVHHVESGGGVVQAGGSLRLSCAASGRITYVNAMGWYRQPPGKESELVATITGSGDSKHYADSVKGRFTISRDNAMNTVYLQMNSLKPEVTAVYYGAADVYRYWQIYEYWGQGTQVTVSS	low polyreactivity
QVQLVESGGGLVQAGGSLRLSCAASGSMFANNAMGWYRQAPGKERELVAAITSGGNTDNADSVKGRFTISRDNAKYTVYLQMNSLKPEDTAVYYCAAERPPYGYLVVGYVSTQYYYWGQGTQVTVSS	low polyreactivity
QVQLVESGGGLVQAGGSLRLSCAASGSIFIVYAMGWYRQAPGKERELVAAISWSGGSTYYADSVKGRFTISRDNAKNTVYLQMNSLNPEDTAVYYCDAKYTLPFRDVKYYSWGQGTQVTVSS	high polyreactivity
QVQLVESGGGLVQAGGSLRLSCAASGRIFVQYAMGWYRQAPGKERELVAAISGSGGRTYYADSVKGRFTISRDNAKNTVYLQMNSLKPEDTAVYYCNTARRHGQTQGGDYWGQGTQLTVSS	high polyreactivity
QVQLVESGGGLVQAGGSLRLSCAASGFTFSWYAMGWYRPAPGKERELVAAISWDGDSTYYADSVKGRFTISRDNAKNTVYLQMNSLIPEDTAVYYCAADFYYYWDGYDYWGQGTQVTVSS	high polyreactivity
QVQLVESGGGLLQAGGSLRLTCAASGRIFGRYAMGWYRQAPGKERELVAAISYSGGSTRYADSVKGRFTISRDNSKNTVYLQMNSLKPEDTAVYYCAAARRFSTHEYWGQGTQVTVSS	high polyreactivity
QVQLVESGGGLVQAGGSLRLSCAASGFTFHSYAMGWYRQAPGKERELVATISRSGGSTYYADSVKGRFTISRDNAKNTVYLQMNSLKPEDTAVYYCNKLLYGWSKPVGYDYYWGQGTQVTVSS	high polyreactivity
QVQLVESGGGLVQGGGSLRLSCASSGNTFYYYAMGWYRQAPGKERELVAAITRGGSTNYADSVKGRFTISRDNAKNTVYLEMISLKPEDTSVYYCAAEQRAPRFADYDYWGQGTQVTVSS	low polyreactivity
QVQLVESGGGLVQAGGSLRLSCAASGLIIRWNAMGWYRQAPAKERELVAAINRGGSTYYADSVKGRFTISRDNAKNTVYLQMTSLKPEDTAVYYCAVGYAHSSNRRYYYKKTHGYWGQGTQVTVSS	low polyreactivity
QVQLVESGGGLVQAGGSLRLSCAASGFIFRYAMGWYRQAPGKERELVAAISSSGGSTNYADSVKGRFTISRDNAKNTVYLQMNSLKPEDTAVYYCAARDGRQPRGYRLVTYYAPMYYWGQGTQVTVSS	high polyreactivity
QVQLVESGGGLVQAGGSLRLSCAASGRTFPRYAMGWYRQATGKERELVAAISVRAGITYYADSVKGRFTISRDNAKNTVYLQMNSLKPEDTAVYYCAKDHWTTSYDEGDYWGQGTQVTVSS	low polyreactivity
QVQLVESGGGLVQAGGSLRLSCAASGRIFSNNAIGWYRQAPGKARELVAAHSWNGGRTYYADSVKGRFTISRDNGKNTVYLQMNSLQPEDPAVYYCTKHDAQTRSFASTWYVYWGQGTQVTVSS	high polyreactivity
QVQLVESGGGLVQAGGSLRLSCAASGLTLYTYAMGWYRQAPGKERELVAAISKNGGRTYYADSVKGRFTISRDNANNTVYLQMNSLKPEDTAVYYCAARARVGSVTFDYWGQGTQVTVSS	high polyreactivity
QVQLVESGGGLVQAGGSLRLSCAASGFIFWDYAMGWYRQAPGKEREFVATISLSVGSTYYADSVKGRFTISRDNAKNTVYLQMNSLKPEDTAVYYCAAVTWGEGFDYWGQGTQVTVSS	low polyreactivity
QVQLVESGGGLVQAGGSLRLSCAASGFIFGINAMGWYRQAPGKERELVAAISKRTGSTYYADSVKGRFTISRDTAKNTVYLQMNSLKPEDTAVYYCNVVRYNGLDKYDYWGQGTQVTVSS	high polyreactivity
QVQLVESGGGLVQAGGSLRLSCAASGFIFSRYAMGWSRQAPGKERELVAAIRFSGSITYYADSVKGRFTISRDNAKNTVYLQMNSLKPEDTAVYYCAAYRRYYGWYEYWGQGTQVTVSS	high polyreactivity
QVQLVQSGGRLVQAGGSLRLSCAASGLIFVHYTMGWYRQAPGKERELVASINSGGSTNYADSVKGRFTISRDNAKNTVYLQMISLKPEDTAVYYCADRRVVFWRRMYYWGQGTQVTVSS	high polyreactivity

Sequence	polyreactivity (PSR sort gate)
QVQLVESGGGLVQAGGSLRLSCAASGIIFVSYAMGWYRQAPGKERELVADITSGGRTYYADSVKGRFTISRDNAKNTVYLQMNSLKPEDTAGYYCAATYSYKGRWVWVYYWGQGTQVTVSS	high polyreactivity
QVQLVESGGGLVQAGGSLRLSCAASGIIFGDNAMGWYRQAPVTERELVAAIDSGGSTYYADSVKGRFTISRDNAKNTVYLQMISLKPEDTAVYYCNAVTAFGYSYAGWDYDQYNYWGQGTEVTVSS	low polyreactivity
QVQLVESGGGLVQAGGSLRLSCAASGRIYGVYVMGWSRQAPGKERELVAAISWGGGTYYADSVKGRFTISRDNSKNTVTLKMNSLKPEDTAVYYCNAESYYTMYYWGQGTQVTVSS	low polyreactivity
QVQLVESGGGLVQAGGSLLLSCAASGFTFTVYAMGWYILAPGKERELVAAISWNGGSTYYADSVKGRFTISRDNAKNTVYLQMNSLKPEDTAVYYCNTLQPYLYDYWGQGTQVTVSS	high polyreactivity
QDQLVESGGGLDQAGGSLRLSCAASGRIFKLYAMGWYRQAPGKERELVAAISKSGGNTYADSVKGRFTISRDNAKNTVYLQMNSLKPEETAVYYCAATVQSTSDPFDYWGQGTQVTVSS	low polyreactivity
QVQLVESGGGLVQAGGSLRLSCAASGFTFYRYAMGWYRQAPGKERELVAAISWSGGTTYYADSVKGRFTISRDNAKNTVYLQMNSLKPEDTAVYYCNARFIARSGYKVDYDYWGQGTQVTVSS	high polyreactivity
QVQLVESGGGLVQAGGSLRLSSAASGSIFYDYAMGWYRQAPGKERELVAAITNDDSSTYYADSVKGRFTISRDNAKNTVYLQMNSLKPEDTAVYYCRFKYAVAHHFWVYRYDYWGQGTQVTVSS	low polyreactivity
QVQLVESGGGLVQEGGSLSLSCAASGYIFYIYAMGWYRQAPGKERELVATISWSGGDTYYADSVKGRFTISRDNANNTVYLQMNSLNPEDTAVYYCATEVGQSWAGDGDYEYWGQGTQVTVSS	low polyreactivity
QVQLVESAAGLVQAGGSLRLSCAASGITFFQYTMGWYRQAPGKERELVAAISTSGARTYYADSVKGRFTISRDNAKNTVYLQMNSLKPEDTAVYYCAARTWRRPYYRPRYEYWAQGTQVTVSS	high polyreactivity
QVQLEESGGGLVQAGGSLRLSCAASGRTFYSYAMGWYRQAPGKEREWVAAITSDGGTYYADSVKGRFTISRDNAKNTVYLQMNSLKPEDTAVYYCAAELYYWYYYWGQGTQVTVSS	low polyreactivity
QVQLVESGGGLVQAGGSLRLSCAASGRIIALNAMGWYRQAPGKERELVAAISRRGGSTYYADSVKGRFTISRDNAKNTVYLQMNSLKPEDTAVYYCATDSVRYGYDYWGQGTQVTVSS	high polyreactivity
QVQLVESGGGLVQAGCSLRLSCAASGSTFFFNAMGWYRQAPGKERELVAAITGRCGSTYYADSVKGRFTISRDNAKNTVYLQMNSLIPEDTAVYYCAAEGVPYWSSRFWRYDYWGQGTQVTVSS	low polyreactivity
QVQLVESGGGLVQAGGSLRLSCAASGRTLVGYAMGWYIQAPGKERELVAAISSRGGGTYYADSVKGRFTISRDNAKNTVYLQMNSLKQEDTAVYYCEVSGASYSWGQGTQVTVSS	high polyreactivity
QVQLVESAGGLVQAGVSLRLSCAASGLTFVQYAMGWYIQAPGKERELVAAISRSGGSTYYADSVKGRFTISRDNAKNTVYLQMNSMKPEDTAVYYCNAVIWLTSSEYWGQGTQVTVSS	high polyreactivity
QVQLVESGGGLVQAGGSLRLSCASSGSIFSSNTMGWYRQAPGKERELVAAITVSGGRTYYADSVKGRFTISRDNAKNTVYLQMNSLKPEDTAVYFCAARYANTYRTETSYPRYYSWGQGTHVTVSS	high polyreactivity
QVQLVESGGGLVQAGGSLRLSCAASGYSFKSYVMGWYSQAPGKERELVAAITWSGGSTYYADSVKGRFTLSRDNAKNTVFLQMHSLKPEDTAVYYCAAYPRRYRTTYDYWGQGTQVTVSS	high polyreactivity
QVQLVESGGGLVQAGGSLRLRCAASGSTSPNAMGWYRQAPGKERELVAAIWSGGTYYADSVKGRFTISRDNAKNTVYLQMNSLKPEDTAVYYCAVTGVYRGFRYGYWGQGTQVTVSS	low polyreactivity
QVQLVDSGGGLVQAGGSLRLSCAASGSTFDAYAMGWYRQAPGKERELVAGISSGGSYEYAESVKGRFTISRDNAKNTVYVQMNSLKPEDTAVYYCAADSRQSDYYYQPTKFDYWGQGTQVTVSS	low polyreactivity
QVQLVETGGGLVQAGGSLRLSCAASGFTIRRYTMGWYRQAPGKERELVAAITRGVRTYYADSVKGRFTISRDNAKNTVYLQMNSLKPEDTAVYYCNTAQQSERDYWGQGTQVTVSS	high polyreactivity
QVQLVESGGCLVQAGGSLRLSCAASGRIFYNYAMGWYRQAPGKERELVAAISGSGGSTYYADSVKGRFTISRDNAKNTVYLQMNSLKPEDTAVYYCSTSGPQYYSRNFDYWGQGTQVTVSS	low polyreactivity
QVQLVESGGGLVQAGGSLRLSCAASGSIFFSYAMGWYRKAPGKERELVAAIDYSGGGTYYADSVKGRFTISRDNAKNTVYLQMNSLKPEDTAVYYCKSDTEVWADTFISYRALNYWGQGTQVTVSS	low polyreactivity
